Data as given in US6809076B2, “Use of anticoagulant agents in the extracorporeal treatment of blood” (Abbott GmbH & Co. KG, priority 2000, dated 2004).
Marks after values point to notes of the source that are not given here. PEG = not defined here

Columns and labels:
plasma fibrin formation = experiment: APTT determination in dialysis patients; assay type: in vivo, human
Method: The determination of the activated partial thromboplastin time (APTT) is based on plasma fibrin formation induced by addition of a partial thromboplastin (Actin FS) and calicum [sic] ions to the plasma. Ellagic acid is used as activator.
The sample volume is at least 450 μl.
The controls used are control plasma in the normal range, control plasma in the therapeutic range, control plasma in the low therapeutic range and a quality control in the normal range, for example the controls commercially available from Dade citrol 1, Citrol 2, Citrol 3 and Coag Trol N.
The measurement is carried out in an ACL 3000.
The ACL 3000 is a completely automatic, microcomputer-controlled centrifugal analysis system. After the start of the analysis cycle, sample and Actin are pipetted separately into the half-cuvettes of a reaction rotor made of acrylic glass with 20 cuvettes, and are mixed and then incubate d. After the incubation, calcium chloride is pipetted into the cuvettes, mixed and measured. Measurements are carried out while the rotor is rotating. The light source for the nephelometric measurement is a light-emitting diode (LED) whose light beam is directed via a light guide system (γ=660 nm) onto the measuring cuvettes. The scattered light distribution is measured at an angle of 90° to the light source with the aid of a semiconductor sensor located underneath the rotor carrier. The measured results can also be stated as ratio and describe the ratio of the current value to the individual baseline value for a patient before the dialysis with PEG-hirudin.
The accuracy of measurement is +10% to −10%.

vascular complications = experiment: Prophylaxis of vascular complications between hemodialysis sessions; assay type: in vivo, human; conditions: residual concentration in blood between the hemodialysis sessions, 20 patients
Method: (§1) 20 male and female patients between 18 and 75 years who must regularly undergo hemodialysis were selected. After an initial treatment with heparin (UFH), each patient was given an intravenous injection, immediately before the first dialysis during PEG-hirudin treatment, of a dose of 0.08 mg/kg of PEG-hirudin with a specific antithrombin activity of 13,354 ATU/mg of protein per kg of body weight. This was followed by hemodialysis with an average duration of 4 hours, 3×a week using a Hemophan low flux membrane in a GFS plus 16 dialyzer. When the dialysis was complete and before the subsequent dialysis sessions, firstly the PEG-hirudin concentrations in the patient's blood were determined. The measured values served as the basis for the amount of the PEG-hirudin doses to be administered immediately before each hemodialysis.

meizothrombin = biological target: T1, meizothrombin (Homo sapiens, UniProt P00734); experiment: ECT (ecarin clotting time) determination in dialysis patients; assay type: in vivo
T1 construct: produces meizothrombin by cleavage of the prothromin in the plasma; from tissue; host or cells: citrated venous blood/plasma of human dialysis patients
Method: Determination of the ECT (ecarin clotting time) is based on the inhibition of the coagulation activity of meizothrombin. Ecarin, a purified fraction of Echis carinatus venom, produces meizothrombin by cleavage of the prothromin in the plasma. The time until fibrinogen coagulates induced by ecarin is measured.
The sample volume is about 100 μl.
Standard E: [c]=2500 ng/ml (1:20 dilution of standard C with normal human citrated plasma)
The measured results can also be stated as ratio and describe the ratio of the current value to the individual baseline value for a patient before the dialysis with PEG-hirudin.
The accuracy of measurement is +30% to −10%.

thrombin [1] = biological target: thrombin (Homo sapiens, UniProt P00734); experiment: Specific antithrombin activity (ATU, WHO I thrombin standard); assay type: biochemical
Text: The blood levels described above can usually be obtained with bolus doses in the range from about […] to about 1400 ATU/kg, preferably from about 400 ATU/kg to about 1200 ATU/kg and, in particular, from about 600 ATU/kg to about 1000 ATU/kg, of body weight. After adaptation it is possible to treat individuals with chronic renal insufficiency, with an average of three exracorporeal circulations a week, with a dosage of about 200 to about 1000 ATU/kg, preferably of about 200 ATU/kg to about 800 ATU/kg and, in particular, from about 400 ATU/kg to about 600 ATU/kg, of body weight. The abbreviation ATU stands for antithrombin units bas ed on the WHO I thrombin standard.

thrombin [2] = conditions: human, in vivo, iv, 0.08 mg/kg
Method: as §1
Determination of the anti-IIa activity is based on measurement of the activity remaining after addition of excess thrombin to the sample. Heparin and other non-thrombin serine proteases are neutralized before the assay by adding prothamine [sic] chloride and aprotinin to the sample. […]
The measurement is carried out in an ACL 3000 (incubation time: 120 s; inter-ramp interval: 3 s; delay time: 3 s; aquisition time: 120 s; speed: 600 rpm). The extinction is measured using a 405 nm filter at a constant rotor speed. […]

[3] = dialysis 04, first with PEG-hirudin (0.08 mg/kg i.v.)
[4] = dialysis 05, PEG-hirudin i.v. before each dialysis
[5] = dialysis 06, PEG-hirudin i.v. before each dialysis
[6] = dialysis 07, PEG-hirudin i.v. before each dialysis
[7] = dialysis 08, PEG-hirudin i.v. before each dialysis
[8] = dialysis 09, PEG-hirudin i.v. before each dialysis
[9] = dialysis 10, PEG-hirudin i.v. before each dialysis
[10] = dialysis 11, PEG-hirudin i.v. before each dialysis
[11] = dialysis 12, PEG-hirudin i.v. before each dialysis
[12] = dialysis 13, PEG-hirudin i.v. before each dialysis

B1: PEG-hirudin: polyethylene glycol conjugates of hirudin; preferably SEQ ID NO:1 polypeptide with PEG residues on lysine 27 and lysine 33 (conjugate)
chain: VVYTDCTESGQNLCLCEGSNVCGQGNK(PEG)CILGSK(PEG)GERNQCVTGEGTPRPQSHNDGDFEEIPEEYLQ
modifications: ends and bridges not checked
With B1 the “APTT After dialysis” value (plasma fibrin formation; [3]) was 2.2 ratio, the “APTT Bolus 5' after admin.” value (plasma fibrin formation; [3]) was 2.5 ratio and the “APTT Before dialysis” value (plasma fibrin formation; dialysis 04, first with PEG-hirudin (0.08 mg/kg i.v.), before dose) was 1.0 ratio. For the same molecule, the “APTT After dialysis” value (plasma fibrin formation; [4]) was 2.3 ratio, the “APTT Before dialysis” value (plasma fibrin formation; [4]) was 1.7 ratio and the “APTT After dialysis” value (plasma fibrin formation; [5]) was 2.3 ratio. For the same molecule, the “APTT Before dialysis” value (plasma fibrin formation; [5]) was 1.9 ratio, the “APTT After dialysis” value (plasma fibrin formation; [6]) was 2.2 ratio and the “APTT Before dialysis” value (plasma fibrin formation; [6]) was 1.9 ratio. For the same molecule, the “APTT After dialysis” value (plasma fibrin formation; [7]) was 2.5 ratio, the “APTT Before dialysis” value (plasma fibrin formation; [7]) was 2.0 ratio and the “APTT Bolus 5' after admin.” value (plasma fibrin formation; [7]) was 2.6 ratio. For the same molecule, the “APTT After dialysis” value (plasma fibrin formation; [8]) was 2.4 ratio, the “APTT Before dialysis” value (plasma fibrin formation; [8]) was 2.0 ratio and the “APTT After dialysis” value (plasma fibrin formation; [9]) was 2.3 ratio. The “APTT Before dialysis” value (plasma fibrin formation; [9]) was 2.0 ratio, the “APTT After dialysis” value (plasma fibrin formation; [10]) was 2.3 ratio and the “APTT Before dialysis” value (plasma fibrin formation; [10]) was 2.0 ratio. The “APTT After dialysis” value (plasma fibrin formation; [11]) was 2.3 ratio, the “APTT Before dialysis” value (plasma fibrin formation; [11]) was 2.0 ratio and the “APTT After dialysis” value (plasma fibrin formation; [12]) was 2.2 ratio. The “APTT Before dialysis” value (plasma fibrin formation; [12]) was 1.9 ratio, the “APTT Bolus 5' after admin.” value (plasma fibrin formation; [12]) was 2.5 ratio and the “prophylactic protection against vascular complications” value (vascular complications) was “ensured prophylactic protection against vascular complications”. For the same molecule, the “ECT Bolus 5' after admin.” value (meizothrombin; [3]) was 3.0 [s] [ratio], the “ECT Bolus 5' after admin.” value (meizothrombin; [7]) was 3.1 [s] [ratio] and the “ECT Bolus 5' after admin.” value (meizothrombin; [12]) was 3.1 [s] [ratio]. The specific antithrombin activity (thrombin [1]; PEG-hirudin given to the patients) was 13,354 ATU/mg of protein, the specific activity (thrombin [1]; Standard A, 26.6 mg/ml) was 11,696 ATU/mg of protein and the “Anti-IIa After dialysis” value (thrombin [2]) was 818 ng/mL. The “Anti-IIa Bolus 5' after admin.” value (thrombin [2]; 5 min) was 1298 ng/mL.
